The results in this text go back to patent US20200262898A1 (INTEGRAL MOLECULAR, published 2020).

Assay [1] deals with T1, Fc-binding protein (the ZZ domain of ProA).
T1 construct: domain: ZZ domain of ProA; the construct is not described
The assay is described as follows: flow cytometry on cells expressing the Fc-binding ZZ domain on their surface; given as a measure of expression. The source says:
(§1) Antibodies were generated using the common light chains B9, F10, C11, and H11 paired with 8 different heavy chains. […] Binding is expressed as Signal:Background for binding to the molecular target of the heavy chain antibody (listed at top of Table 4). Expression is based on binding to cells expressing an Fc-binding protein (the ZZ domain of ProA) (ZZ) on their surface, enabling total antibody to bind and be measured. Detection was using flow cytometry with cells transfected to express the target protein. Background binding S:B is normalized to 1.0, using mock-transfected cells as background. The data in the table below illustrate that the light chains can be used with a variety of heavy chains and the antibody generated from a VH that can bind to the light chains B9 and F10 will function and bind to the target of interest.

The target in another assay is T2, CD59 (UniProt P13987 26-102, limits assumed).
T2 construct: whole, on cells
T2 sequence (looked up): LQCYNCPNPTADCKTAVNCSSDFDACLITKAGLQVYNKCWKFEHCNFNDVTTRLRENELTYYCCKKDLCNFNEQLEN
In words: flow cytometry on cells transfected with the target; signal over mock-transfected cells (background = 1.0).
From the text: as §1
(A flow cytometer gives signals particle by particle.)

Another assay concerns the target T3, CD81 (UniProt P60033 1-236, limits assumed).
T3 construct: whole, on cells
T3 sequence (looked up): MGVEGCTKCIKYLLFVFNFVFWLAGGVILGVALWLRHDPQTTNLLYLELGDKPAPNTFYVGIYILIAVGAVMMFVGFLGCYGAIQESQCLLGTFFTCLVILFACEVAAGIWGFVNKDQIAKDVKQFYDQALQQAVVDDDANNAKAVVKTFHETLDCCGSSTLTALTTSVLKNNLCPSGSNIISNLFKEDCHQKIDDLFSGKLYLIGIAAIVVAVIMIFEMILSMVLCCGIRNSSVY
Described as above.
From the text: as §1

B1: Antibody of common light chain C11 (C11chicken) paired with the heavy chain against CD59 (antibody, V domains shown)
VH: AVTLDESGGGLQTPGGGLSLVCKASGFDFSSFDMVWVRQAPGKGLEWVAGISYSNTDTSYAPAVDGRATISRDNGQSTVRLQLNNLRAEDSATYYCAKSAGGCCYRADNIDAWGHGTEVIVSS
VL: ALTQPSSVSANPGETVKITCSGGGSWYGSYYYGWYQQKSPGSAPVTLIYNNDKRPSDIPSRFSGSESGSTATLTITGVQAEDEAVYFCGGYDSTTTDMFGAGTTLTVL
notes: also called HC-CD59
B1: the “S:B Expression” value in assay [1] was 12.2 S:B. The “S:B Binding” value in the assay with CD59 is 1.4 S:B.

B2: Antibody of common light chain B9 (B9chicken) paired with the heavy chain against CD81 (antibody, V domains shown)
VH: AVTLDESGGGLQTPGGALSLVCKASGFSIGDYNMGWVRQAPGKGLEWVAGIDAGGGTWRATAVKGRATISRDNGQSTVRLQLNNLRAEDTATYFCAKSTDSSANCCANSIDAWGHGTEVIVSS
VL: ALTQPSSVSANPGETVKITCSGGGSSNYYGWYQQKSPGSAPVTLIYGTNKRPSDIPSRFSGSKSGSTGTLTITGVQADDEAVYFCGSADSSTNAGIFGAGTTLTVL
notes: also called HC-CD81
Consider B2, for which the “S:B Expression” value in assay [1] was 10.8 S:B. In addition, the “S:B Binding” value with CD81 is 0.6 S:B.

B3: Antibody of common light chain C11 (C11chicken) paired with the heavy chain against CD81 (antibody, V domains shown)
VH: AVTLDESGGGLQTPGGALSLVCKASGFSIGDYNMGWVRQAPGKGLEWVAGIDAGGGTWRATAVKGRATISRDNGQSTVRLQLNNLRAEDTATYFCAKSTDSSANCCANSIDAWGHGTEVIVSS
VL: ALTQPSSVSANPGETVKITCSGGGSWYGSYYYGWYQQKSPGSAPVTLIYNNDKRPSDIPSRFSGSESGSTATLTITGVQAEDEAVYFCGGYDSTTTDMFGAGTTLTVL
notes: also called HC-CD81
As for B3, the “S:B Expression” value in assay [1] was 9.8 S:B. For the same molecule, the “S:B Binding” value with CD81 was 30.9 S:B.

B4: Antibody of light chain D3 (D3chicken) paired with the heavy chain against CD81 (antibody, V domains shown)
VH: AVTLDESGGGLQTPGGALSLVCKASGFSIGDYNMGWVRQAPGKGLEWVAGIDAGGGTWRATAVKGRATISRDNGQSTVRLQLNNLRAEDTATYFCAKSTDSSANCCANSIDAWGHGTEVIVSS
VL: ALTQPSSVSANPGETVKITCSGDDRWYGWYQQKSPGSAPVTLIYSNDKRPSDIPSRFSGSKSGSTGTLTITGVQADDEAVYFCGSRDSSYAGIFGAGTTLTVL
notes: also called HC-CD81
With B4, the “S:B Expression” value in assay [1] was 1.8 S:B. The “S:B Binding” value in the assay with CD81 was 1.2 S:B.

B5: Antibody of light chain E1 (E1chicken) paired with the heavy chain against CD81 (antibody, V domains shown)
VH: AVTLDESGGGLQTPGGALSLVCKASGFSIGDYNMGWVRQAPGKGLEWVAGIDAGGGTWRATAVKGRATISRDNGQSTVRLQLNNLRAEDTATYFCAKSTDSSANCCANSIDAWGHGTEVIVSS
VL: ALTQPSSVSANPGETVKITCSGSSGSGYYGWYQQKSPGSAPVTLIYDNDKRPSDIPSRFSGSKSGSTGTLTITGVQADDEAVYFCGSADNNYTGIFGAGTTLTVL
notes: also called HC-CD81
For B5, in assay [1], the “S:B Expression” value is 1.7 S:B. In addition, the “S:B Binding” value in the assay with CD81 is 1.5 S:B.

B6: Antibody of common light chain B9 (B9chicken) paired with the heavy chain against CD59 (antibody, V domains shown)
VH: AVTLDESGGGLQTPGGGLSLVCKASGFDFSSFDMVWVRQAPGKGLEWVAGISYSNTDTSYAPAVDGRATISRDNGQSTVRLQLNNLRAEDSATYYCAKSAGGCCYRADNIDAWGHGTEVIVSS
VL: ALTQPSSVSANPGETVKITCSGGGSSNYYGWYQQKSPGSAPVTLIYGTNKRPSDIPSRFSGSKSGSTGTLTITGVQADDEAVYFCGSADSSTNAGIFGAGTTLTVL
notes: also called HC-CD59
On to B6, for which the “S:B Expression” value in assay [1] is 11.8 S:B. The “S:B Binding” value in the assay with CD59 is 0.7 S:B.
